Data taken from publication PMC9972942, “E6-Encoded by Cancer-Causing Human Papillomavirus Interacts with Aurora Kinase A To Promote HPV-Mediated Carcinogenesis” (Journal of Virology, 2023).

T1: GST-tagged HPV16 E7 (human papillomavirus type 16, UniProt P03129 1-98)
T1 construct: E7 oncoprotein of human papillomavirus type 16; also called GST-16 E7; HPVE7; source: E. coli, purified GST fusion protein
T1 sequence: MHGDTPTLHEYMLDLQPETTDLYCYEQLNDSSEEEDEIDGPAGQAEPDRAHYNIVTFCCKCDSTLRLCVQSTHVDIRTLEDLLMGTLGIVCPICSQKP

T2: GST-tagged HPV11 E6 (human papillomavirus type 11, UniProt P04019 1-150)
T2 construct: E6 protein of human papillomavirus type 11 (low-risk type); construct pGEX2T:HPV-11 E6; also called GST-11E6; lr-HPV11E6; source: E. coli, IPTG-induced, purified on glutathione-conjugated agarose
T2 sequence: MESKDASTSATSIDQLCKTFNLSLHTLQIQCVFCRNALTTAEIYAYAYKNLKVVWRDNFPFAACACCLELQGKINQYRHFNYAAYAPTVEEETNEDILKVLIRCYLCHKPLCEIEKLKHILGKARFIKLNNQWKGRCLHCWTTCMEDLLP

T3: GST-tagged HPV58 E6 (human papillomavirus type 58, UniProt P26555 1-149)
T3 construct: E6 oncoprotein of human papillomavirus type 58; construct pGEX2T:HPV-58 E6; also called GST-58E6; source: E. coli, IPTG-induced, purified on glutathione-conjugated agarose
T3 sequence: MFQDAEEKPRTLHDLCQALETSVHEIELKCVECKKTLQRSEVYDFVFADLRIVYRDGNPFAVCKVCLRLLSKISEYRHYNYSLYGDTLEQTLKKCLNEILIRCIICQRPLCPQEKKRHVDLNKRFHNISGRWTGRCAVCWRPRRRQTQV


Legend:
[1] = biological target: GST-tagged HPV16 E6 with its PDZ binding motif deleted (human papillomavirus type 16); assay: pull-down; purified GST fusion proteins on glutathione-conjugated agarose incubated with equal amounts of in vitro-translated HA-AurA, 1 h at room temperature; washed 3 times with PBS containing 0.1% Tween 20; bound AurA detected by Western blotting with an HA-specific antibody; bands quantified with ImageJ relative to GST-16E6 (n = 3)
[2] = biological target: GST-tagged HPV16 E6 with its PDZ binding motif deleted (human papillomavirus type 16)
[3] = biological target: T4, GST-tagged HPV16 E6 S150A (human papillomavirus type 16, UniProt P03126 1-158, S150A); assay: cell-based or functional assay
[4] = biological target: T5, GST-tagged HPV16 E6 T140A (human papillomavirus type 16, UniProt P03126 1-158, T140A); assay: cell-based or functional assay
GST-tagged HPV16 E6 S89A [5] = biological target: T6, GST-tagged HPV16 E6 S89A (human papillomavirus type 16, UniProt P03126 1-158, S89A); assay: cell-based or functional assay
[6] = biological target: GST-tagged HPV16 E6 wild type (human papillomavirus type 16, UniProt P03126 1-158); assay: cell-based or functional assay
[7] = biological target: T7, GST-tagged HPV16 E6 S145A (human papillomavirus type 16, UniProt P03126 1-158, S145A); assay: cell-based or functional assay
[8] = biological target: T4, GST-tagged HPV16 E6 S150A; assay: pull-down; purified GST fusion proteins on glutathione-conjugated agarose incubated with equal amounts of in vitro-translated HA-AurA, 1 h at room temperature; washed 3 times with PBS containing 0.1% Tween 20; bound AurA detected by Western blotting with an HA-specific antibody; bands quantified with ImageJ relative to GST-16E6 (n = 3); conditions: one partner purified
GST-tagged HPV16 E7 = biological target: T1, GST-tagged HPV16 E7; assay: as above; conditions: one partner purified
GST-tagged HPV11 E6 = biological target: T2, GST-tagged HPV11 E6; assay: as above; conditions: one partner purified
[9] = biological target: T5, GST-tagged HPV16 E6 T140A; assay: as above; conditions: one partner purified
GST-tagged HPV18 E6 = biological target: T8, GST-tagged HPV18 E6 (human papillomavirus type 18, UniProt P06463 1-158); assay: as above; conditions: one partner purified
T8 construct: E6 oncoprotein of human papillomavirus type 18; construct pGEX2T:HPV-18 E6; also called GST-18E6; source: E. coli, IPTG-induced, purified on glutathione-conjugated agarose

GST-tagged HPV16 E6 S89A [10] = biological target: T6, GST-tagged HPV16 E6 S89A; assay: as above; conditions: one partner purified
GST-tagged HPV58 E6 = biological target: T3, GST-tagged HPV58 E6; assay: as above; conditions: one partner purified
[11] = biological target: T7, GST-tagged HPV16 E6 S145A; assay: as above; conditions: one partner purified

Row | Molecule | AurA bound relative to GST-16E6 (%) [1] | AurA kinase activity (ADP-Glo) of purified AurA in the presence of GST-E6 ΔPBM, relative to AurA with GST alone [2] | AurA kinase activity (ADP-Glo) of purified AurA in the presence of GST-E6 S150A, relative to AurA with GST alone [3] | AurA kinase activity (ADP-Glo) of purified AurA in the presence of GST-E6 T140A, relative to AurA with GST alone [4] | AurA kinase activity (ADP-Glo) of purified AurA in the presence of GST-E6 S89A, relative to AurA with GST alone (GST-tagged HPV16 E6 S89A [5]) | AurA kinase activity (ADP-Glo) of purified AurA in the presence of GST-E6, relative to AurA with GST alone [6] | AurA kinase activity (ADP-Glo) of purified AurA in the presence of GST-E6 S145A, relative to AurA with GST alone [7] | AurA bound relative to GST-16E6 wild type (%) [8] | AurA bound relative to GST-16E6 (%) (GST-tagged HPV16 E7) | AurA bound relative to GST-16E6 (%) (GST-tagged HPV11 E6) | AurA bound relative to GST-16E6 wild type (%) [9] | AurA bound relative to GST-16E6 (%) (GST-tagged HPV18 E6) | AurA bound relative to GST-16E6 wild type (%) (GST-tagged HPV16 E6 S89A [10]) | AurA bound relative to GST-16E6 (%) (GST-tagged HPV58 E6) | AurA bound relative to GST-16E6 wild type (%) [11]
1 | Aurora kinase A (HA-AurA, in vitro translated) (from UniProt O14965 1-403) (enzyme) | 87% | 0.85 | – | – | – | – | – | – | – | – | – | – | – | – | –
2 | Aurora kinase A (HA-AurA, in vitro translated) (enzyme, UniProt O14965 1-403, looked up, Aurora kinase A (AurA); plasmid pcDNA3.1:HA-AurA; the functional rows are written on this molecule; source: in vitro translated (TNT Coupled Reticulocyte Lysate System, Promega)) MDRSKENCISGPVKATAPVGGPKRVLVTQQFPCQNPLPVNSGQAQRVLCPSNSSQRIPLQAQKLVSSHKPVQNQKQKQLQATSVPHPVSRPLNNTQKSKQPLPSAPENNPEEELASKQKNEESKKRQWALEDFEIGRPLGKGKFGNVYLAREKQSKFILALKVLFKAQLEKAGVEHQLRREVEIQSHLRHPNILRLYGYFHDATRVYLILEYAPLGTVYRELQKLSKFDEQRTATYITELANALSYCHSKRVIHRDIKPENLLLGSAGELKIADFGWSVHAPSSRRTTLCGTLDYLPPEMIEGRMHDEKVDLWSLGVLCYEFLVGKPPFEANTYQETYKRISRVEFTFPDFVTEGARDLISRLLKHNPSQRPMLREVLEHPWITANSSKPSNCQNKESASKQS | – | – | 0.68 | 0.61 | 0.65 | 0.85 | 0.68 | 56% | 37.3% | 12% | 25.3% | 102% | 67.3% | 158% | 24%
